For 14 molecules, koff results are on record in US20210363269A1 (ALX ONCOLOGY, published 2021).

First the molecules themselves.
B1: S136 (scFv, V domains shown)
VH: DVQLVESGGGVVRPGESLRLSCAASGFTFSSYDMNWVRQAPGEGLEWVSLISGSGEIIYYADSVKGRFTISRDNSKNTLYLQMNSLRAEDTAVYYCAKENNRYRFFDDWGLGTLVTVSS
VL: ETVLTQSPGTLTLSPGERATLTCRASQSVYTYLAWYQEKPGQAPRLLIYGASSRATGIPDRFSGSGSGTEFTLTISSLQSEDFAVYYCQQYYDRPPLTFGGGTKVEIK
notes: also called scFv-Fc form of AB136
B2: S189 (scFv, V domains shown)
VH: DVQLVESGGGVVRPGESLRLSCAASGFTFSSSDMNWVRQAPGEGLEWVSLISGSGEITYYADSVKGRFTISRDNSKNTLYLQMNSLRAEDTAIYYCAKENNMYRFFDYWGLGTLVTVSS
VL: B1 VL with T12S, T22S, E38Q, A43P, Y49H, G50A, S52R, S53N, T56A
B3: S184 (scFv, V domains shown)
VH: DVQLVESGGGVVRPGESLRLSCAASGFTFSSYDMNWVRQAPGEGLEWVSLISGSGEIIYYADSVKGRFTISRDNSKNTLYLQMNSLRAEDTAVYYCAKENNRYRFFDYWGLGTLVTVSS
VL: B1 VL with T12S, T22N, G50D, Q79E
B4: S178 (scFv, V domains shown)
VH: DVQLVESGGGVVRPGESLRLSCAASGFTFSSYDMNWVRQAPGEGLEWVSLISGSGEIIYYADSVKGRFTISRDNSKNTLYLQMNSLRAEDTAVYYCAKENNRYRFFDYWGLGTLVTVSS
VL: B1 VL with T22S, I58V
B5: S185 (scFv, V domains shown)
VH: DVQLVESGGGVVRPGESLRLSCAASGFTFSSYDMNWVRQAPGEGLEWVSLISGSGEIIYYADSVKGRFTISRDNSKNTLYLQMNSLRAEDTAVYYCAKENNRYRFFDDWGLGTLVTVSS
VL: B1 VL with T12S, T22N, T31S, K39R, S53T, Q79E, E81D
B6: S190 (scFv, V domains shown)
VH: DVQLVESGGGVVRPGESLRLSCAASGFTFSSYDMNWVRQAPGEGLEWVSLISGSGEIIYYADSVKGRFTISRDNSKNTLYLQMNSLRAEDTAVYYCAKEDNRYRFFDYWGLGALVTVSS
VL: B1 VL with A19T
notes: also called clone 190
B7: S175 (scFv, V domains shown)
VH: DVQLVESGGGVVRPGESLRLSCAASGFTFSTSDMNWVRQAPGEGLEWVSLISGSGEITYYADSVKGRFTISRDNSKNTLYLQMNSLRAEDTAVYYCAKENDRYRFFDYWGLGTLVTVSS
VL: B1 VL with T10I, T12S, T56A
B8: S180 (scFv, V domains shown)
VH: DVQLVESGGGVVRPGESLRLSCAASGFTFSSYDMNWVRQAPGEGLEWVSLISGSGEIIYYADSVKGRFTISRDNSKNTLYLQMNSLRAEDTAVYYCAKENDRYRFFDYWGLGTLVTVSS
VL: B1 VL
notes: also called clone 180
B9: S29 (scFv, V domains shown)
VH: DVQLVESGGGVVRPGESLRLSCAVSGFRFSSYAMSWVRQAPGKGLEWVSGISSDSDAYYVDSVKGRFTISRDNSKNTLYLQVNSLTAEDTAVYYCARETWNHLFDYWGLGTMVTVSS
VL: ALTQPASVSANLGETVKITCSGGDSSSHYYGWFQQKSPGSAPVTLIYSDDERPSDIPSRFSGSASGSTATLTITGVRVEDEAIYFCGAYDGSTYTNTFGAGTTLTVL
notes: also called clone 29
B10: S26 (scFv, V domains shown)
VH: DVQLVESGGGVVRPGESLRLSCAASGFTFSTYAMSWVRQAPGKGLEWVSGISASGSGTYYGDSVKGRFTMSRDNSKNTLYLQMNSLTAEDTAVYYCARETWNHLFDYWGLGTLVTVSS
VL: ALTQPASVSANLGGTVEITCSGGSSSYYGWYQQKSPGSAPVTVIYSDNQRPSDIPSRFSGSASDSTATLTITGVQVEDEAIYYCGGYDSSTYANTFGAGTTLTVL
notes: also called clone 26
B11: S74 (scFv, V domains shown)
VH: DVQLVESGGGVVRPGESLRLSCAASGFTFSSNAMSWVRQAPGKGLEWLAGISAGDSDTYYPASVKGRFTISRDNPKNTLYLQMNTLTAEDTAVYYCARETWNHLFDYWGLGTLVTVSS
VL: ALTQPASVSANPGETVKIACSGGSYYSYYYGWYQQKSPGSALVTVIYSDDKRPSGIPSRFSGSASGSTATLTITGVRAEDEAVYYCGGYDYSSYTNDFGAGTTLTVL
notes: also called clone 74
B12: S30 (scFv, V domains shown)
VH: DVQLVESGGGVVRPGESLRLSCEASGFTFSSDAMSWVRQAPGKGLEWVSGISSGSSTYYGGSVKGRFTISRDNSKNTLYLQMNSLTAEDTAVYYCARETWNHLFDYWGLGTLVTVSS
VL: ALTQPASVSASPGETVEITCSGGSDSSYYYGWYQQKSPGSAPVTVIYSDNKRPSNIPSRFSGSASGSTATLTITGVRVEDEAVYYCGGYDYSTYTNPFGAGTTLTVL
notes: also called clone 30
B13: S177 (scFv, V domains shown)
VH: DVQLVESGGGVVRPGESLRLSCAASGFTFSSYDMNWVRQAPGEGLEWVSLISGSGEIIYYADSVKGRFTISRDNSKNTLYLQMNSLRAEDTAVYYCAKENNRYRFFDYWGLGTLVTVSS
VL: B1 VL with E1K, T12S, S26D, K39R, G50D
B14: S193 (scFv, V domains shown)
VH: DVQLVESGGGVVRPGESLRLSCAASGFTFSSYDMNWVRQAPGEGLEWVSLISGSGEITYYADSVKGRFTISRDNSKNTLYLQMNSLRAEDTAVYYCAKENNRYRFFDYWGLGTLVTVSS
VL: B1 VL with T12S, T22S, G50A, S53T
notes: scFv-Fc format (VL-linker-VH on human IgG1 Fc)

Substitutions are numbered along the chain they refer to.

The first assay concerns the target T1, high affinity SIRP-α D1 variant CV1-3.
T1 chain: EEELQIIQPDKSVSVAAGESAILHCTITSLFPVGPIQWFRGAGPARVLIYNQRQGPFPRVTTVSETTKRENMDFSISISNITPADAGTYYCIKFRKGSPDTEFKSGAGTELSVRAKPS
Put plainly: SPR, Langmuir fit. In a few lines: (§1)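 Pre-filtered culture media supplied the scFv-Fc antibody clones, which were captured by anti-human IgG Fc amine-coupled (about 4000 RU) to a GLC chip on a ProteOn XPR36. SIRP analytes were flowed in PBS pH 7.4 with 0.01% Tween-20 at 25° C. Interspot and buffer-blank responses were subtracted from the data, which were then fitted to a 1:1 Langmuir model. Dissociation rate constants (koff) were derived from this fitting.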
With B1, the koff is 0.00159 s⁻¹.
B2 displayed an off-rate constant (koff) of 0.00228 s⁻¹.
Still for that read-out and setting: to B3 belongs 0.00514 s⁻¹; to B4, 0.00426 s⁻¹; to B5, 0.00239 s⁻¹.
Still for that read-out and setting: with B6 the figure was 0.00308 s⁻¹; with B7, 0.00165 s⁻¹; with B8, 0.00307 s⁻¹.
Still for that read-out and setting: with B9 the figure was 0.000343 s⁻¹.
B10 displayed a koff of 4.74e-05 s⁻¹.
The molecule B11 came in with a koff of 0.000166 s⁻¹.
B12: the koff is 0.000142 s⁻¹.

The target of a further assay is T2, human SIRPγ isoform 1 (human, UniProt Q9P1W8 29-147).
T2 construct: also called SIRPg; sirpg
T2 sequence (Q9P1W8 29-147 limits assumed): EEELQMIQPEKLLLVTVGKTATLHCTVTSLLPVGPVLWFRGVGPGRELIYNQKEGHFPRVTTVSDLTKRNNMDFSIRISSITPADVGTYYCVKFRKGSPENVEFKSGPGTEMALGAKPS
Put plainly: SPR, Langmuir fit. Summed up:
as §1
In the case of B9, the koff amounted to 0.000216 s⁻¹.
Still for that read-out and setting: with B10 the figure was 8.35e-05 s⁻¹; with B11, 0.000225 s⁻¹; with B12, 0.000193 s⁻¹.

The target of a further assay is T3, human SIRP-α v1 D1 domain (human, UniProt P78324 31-149).
T3 construct: also called human v1
T3 sequence (P78324 31-149 limits assumed): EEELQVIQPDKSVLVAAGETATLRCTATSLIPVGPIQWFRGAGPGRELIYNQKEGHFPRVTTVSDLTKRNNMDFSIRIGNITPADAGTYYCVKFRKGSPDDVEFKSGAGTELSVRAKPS
Put plainly: SPR, Langmuir fit. In a few lines:
as §1
In the case of B1, the koff was 0.000845 s⁻¹.
The same measure, in the same setting: to B2 belongs 0.00106 s⁻¹; to B4, 0.00223 s⁻¹.
As to B5, the koff amounted to 0.00122 s⁻¹.
Same read-out and setting: to B6 belongs 0.00156 s⁻¹.
On the same count and under the same terms, with B7 the figure was 0.000839 s⁻¹.
The same measure, in the same setting: to B8 belongs 0.0016 s⁻¹; to B9, 9.61e-05 s⁻¹.
In turn, B10 returned a koff of 5.81e-05 s⁻¹.
Turning to B11, the koff turned out to be 0.000161 s⁻¹. This koff lies about 2.8-fold higher than the previous one.
Still for that read-out and setting: to B12 belongs 0.000132 s⁻¹.

A further assay has as its target T4, human SIRP-α v2 D1 domain (human).
T4 construct: also called human v2
Put plainly: SPR, Langmuir fit. Summed up: as §1
For B1, the koff worked out at 0.00161 s⁻¹.
The same measure, in the same setting: with B2 the figure was 0.00281 s⁻¹; with B4, 0.00317 s⁻¹.
Same read-out and setting: with B5 the figure was 0.00205 s⁻¹; with B6, 0.00199 s⁻¹.
Still for that read-out and setting: to B7 belongs 0.00183 s⁻¹; to B8, 0.00227 s⁻¹; to B9, 0.000178 s⁻¹.
In turn, B10 had a koff of 0.000111 s⁻¹.
The same measure, in the same setting: with B11 the figure was 0.000278 s⁻¹; with B12, 0.000188 s⁻¹.

For a further assay, the target named is T5, cynomolgus SIRP-α D1 domain (cyno1) (cynomolgus monkey, UniProt Q5TFQ8 30-148 (human entry), limits assumed).
T5 chain: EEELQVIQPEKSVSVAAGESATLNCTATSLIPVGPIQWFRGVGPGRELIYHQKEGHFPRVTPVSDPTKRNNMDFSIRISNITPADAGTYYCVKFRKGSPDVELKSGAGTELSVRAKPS
Put plainly: SPR, Langmuir fit. In a few lines: as §1
B2 came in with a koff of 0.00331 s⁻¹.
Same read-out and setting: to B3 belongs 0.0039 s⁻¹.
Still for that read-out and setting: to B4 belongs 0.00344 s⁻¹; to B13, 0.00447 s⁻¹.
Same read-out and setting: to B5 belongs 0.00178 s⁻¹; to B6, 0.00217 s⁻¹.
B7 registered a koff of 0.00177 s⁻¹.
On the same count and under the same terms, with B8 the figure was 0.0025 s⁻¹; with B9, 0.000387 s⁻¹; with B10, 0.000967 s⁻¹.
On the same count and under the same terms, with B11 the figure was 0.000337 s⁻¹; with B12, 0.000335 s⁻¹.

The next assay deals with T6, cynomolgus SIRP-α D1 domain (cyno2) (cynomolgus monkey, UniProt Q5TFQ8 30-148 (human entry), limits assumed).
T6 chain: T5 chain with E19D, A27V, T28S, V42A, H51N, Q52L, P62A
Description: SPR, Langmuir fit. Summed up: as §1
As to B1, the koff is 0.00132 s⁻¹.
Still for that read-out and setting: with B2 the figure was 0.00187 s⁻¹; with B3, 0.00221 s⁻¹.
Still for that read-out and setting: with B4 the figure was 0.00177 s⁻¹.
On the same count and under the same terms, with B14 the figure was 0.00428 s⁻¹; with B13, 0.00269 s⁻¹; with B5, 0.00103 s⁻¹.
B6 came in with a koff of 0.00124 s⁻¹.
Same read-out and setting: to B7 belongs 0.00107 s⁻¹; to B8, 0.00138 s⁻¹; to B9, 0.000369 s⁻¹.
Still for that read-out and setting: with B10 the figure was 0.000743 s⁻¹.
Still for that read-out and setting: to B11 belongs 0.00032 s⁻¹.
B12 had a koff of 0.000366 s⁻¹.

In a further assay the target is T7, mouse 129 SIRP-α D1 domain (mouse (129 strain), UniProt P97797 32-150).
T7 construct: also called m129
T7 chain: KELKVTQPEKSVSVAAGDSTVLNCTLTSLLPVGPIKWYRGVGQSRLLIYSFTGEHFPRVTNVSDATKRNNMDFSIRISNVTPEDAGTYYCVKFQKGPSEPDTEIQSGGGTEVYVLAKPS
Put plainly: SPR, Langmuir fit. Summed up: as §1
Molecule B1 returned a koff of 0.000459 s⁻¹.
In turn, B2 displayed a koff of 0.000837 s⁻¹.
Same read-out and setting: to B3 belongs 0.000821 s⁻¹.
Same read-out and setting: with B4 the figure was 0.00112 s⁻¹; with B14, 0.00209 s⁻¹; with B13, 0.00104 s⁻¹.
The same measure, in the same setting: with B5 the figure was 0.000717 s⁻¹; with B6, 0.000773 s⁻¹.
Consider B7, for which the koff was found to be 0.000605 s⁻¹.
Same read-out and setting: to B8 belongs 0.000806 s⁻¹; to B9, 0.00114 s⁻¹; to B10, 0.00108 s⁻¹.
Still for that read-out and setting: to B11 belongs 0.000412 s⁻¹.
Same read-out and setting: with B12 the figure was 0.000476 s⁻¹.

For another assay, the target named is T8, NOD mouse SIRP-α D1 domain (mouse (NOD strain)).
T8 chain: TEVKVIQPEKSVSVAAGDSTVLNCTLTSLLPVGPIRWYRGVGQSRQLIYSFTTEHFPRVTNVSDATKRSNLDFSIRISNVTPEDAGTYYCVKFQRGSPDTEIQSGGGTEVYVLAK
Put plainly: SPR, Langmuir fit. Summed up:
as §1
B1 came in with a koff of 0.000386 s⁻¹.
Same read-out and setting: to B2 belongs 0.000504 s⁻¹; to B3, 0.000638 s⁻¹.
On the same count and under the same terms, to B4 belongs 0.000762 s⁻¹; to B14, 0.00157 s⁻¹; to B13, 0.000736 s⁻¹.
Same read-out and setting: with B5 the figure was 0.000573 s⁻¹; with B6, 0.000563 s⁻¹.
B7 returned a koff of 0.000417 s⁻¹.
Still for that read-out and setting: to B8 belongs 0.000576 s⁻¹.
In turn, B10 gave a koff of 0.000764 s⁻¹.

Another assay has as its target T9, C57BL/6 mouse SIRP-α D1 domain (mouse (C57BL/6 strain), UniProt P97797 32-148).
T9 sequence: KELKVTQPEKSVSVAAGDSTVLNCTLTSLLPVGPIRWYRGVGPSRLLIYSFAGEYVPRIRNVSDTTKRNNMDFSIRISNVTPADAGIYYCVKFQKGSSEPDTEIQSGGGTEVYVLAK
Put plainly: SPR, Langmuir fit. Summed up: as §1
As to B1, the koff was 0.00478 s⁻¹.
The same measure, in the same setting: to B2 belongs 0.0039 s⁻¹; to B3, 0.00422 s⁻¹.
Still for that read-out and setting: to B14 belongs 0.00389 s⁻¹; to B5, 0.00514 s⁻¹; to B7, 0.0032 s⁻¹.
Same read-out and setting: with B8 the figure was 0.00466 s⁻¹; with B9, 0.00186 s⁻¹; with B11, 0.00137 s⁻¹.
B12 gave a koff of 0.00244 s⁻¹. This koff is about 1.8-fold higher than that of the molecule before.

A further assay deals with T10, human SIRPβ isoform 1 (human, UniProt O00241 30-148).
T10 construct: also called SIRPb; sirpb1
T10 sequence (O00241 30-148 limits assumed): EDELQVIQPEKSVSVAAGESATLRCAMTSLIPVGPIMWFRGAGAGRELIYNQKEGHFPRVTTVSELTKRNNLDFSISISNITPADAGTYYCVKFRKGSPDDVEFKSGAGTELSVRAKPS
Description: SPR, Langmuir fit. In a few lines: as §1
B1 yielded a koff of 0.0036 s⁻¹.
Same read-out and setting: to B2 belongs 0.00278 s⁻¹; to B4, 0.00473 s⁻¹.
On the same count and under the same terms, with B5 the figure was 0.00385 s⁻¹.
The same measure, in the same setting: to B6 belongs 0.00256 s⁻¹; to B7, 0.00299 s⁻¹; to B8, 0.00375 s⁻¹.
B9 returned a koff of 0.000279 s⁻¹. Compared with the last molecule, the koff is about 13-fold lower.
Still for that read-out and setting: to B10 belongs 0.000129 s⁻¹; to B11, 0.000266 s⁻¹.
The molecule B12 had a koff of 0.000237 s⁻¹.
